The values below come from patent US20130330358A1, “CRYSTAL STRUCTURE AND PEPTIDE INHIBITORS OF HAUSP DEUBIQUITINASE” (priority 2011, published 2013).

Read-outs that look alike come from different tables or passages of the source.

In assay [1] the target is T1, HAUSP TRAF domain HAUSP^62-205 (Homo sapiens, UniProt Q93009).
T1 construct: HAUSP^62-205, and HAUSP^62-560 were fused to a hexahistidine-tag2 and expressed in E. coli BL21 (DE3) RIPL cells; hexahistidine (cleaved yes); made in house; host or cells: E. coli BL21 (DE3) RIPL
T1 sequence (Q93009 62-205): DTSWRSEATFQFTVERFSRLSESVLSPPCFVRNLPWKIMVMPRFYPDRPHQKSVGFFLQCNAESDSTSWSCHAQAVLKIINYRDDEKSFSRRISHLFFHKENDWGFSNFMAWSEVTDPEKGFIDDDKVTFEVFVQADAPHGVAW
The assay can be described thus: biochemical. It counts as binding. The conditions noted are these: for n: Table 1a, ITC fit parameter n, 150 mM NaCl, 10 mM HEPES (pH 7.0). On the procedure: FIG. 5. Typical isothermal titration calorimetric measurements of the interactions between the HAUSP TRAF domain and the vIRF4 protein derivatives or other peptides. Purified proteins and synthesized peptides were reconstituted in 150 mM NaCl and 10 mM HEPES (pH 7.0). The calorimetric assays were performed using a VPITC system. All experiments were carried out with a stirring speed of 300 rpm at 20° C., and the thermal power was recorded every 10 s. Data were analyzed using the ORIGIN software package (version 7.0). […] Each titration against the HAUSP TRAF domain is indicated in each panel.
Purified proteins and synthesized peptides (Peptron Inc., Deajeon, Korea) were reconstituted in 150 mM NaCl and 10 mM HEPES (pH 7.0). The calorimetric assays were performed using a VP-ITC system (MicroCal Inc., Northampton, Mass.). Samples were degassed by vacuum aspiration for 15 min prior to loading. All experiments were carried out with a stirring speed of 300 rpm at 20° C., and the thermal power was recorded every 10 s. Data were analyzed using the ORIGIN software package (version 7.0) supplied with the instrument. […]

In assay [2] the target is T1, HAUSP TRAF domain HAUSP^62-205. The assay can be described thus: Size exclusion chromatography, complex formation in 5-fold excess of MDM2^137-152. The conditions noted are these: in the presence of a 5-fold molar excess of MDM2 peptide. It counts as binding. For orientation: Size exclusion chromatography separates by hydrodynamic size, large species first.

B1: vIRF4^153-216: vIRF4 aa 153-216 fragment, hexahistidine-tagged, expressed in E. coli (protein)
chain: SDTREQSYEEAGAAAPAPPKAPSGLRGRPRKSNRYYNVGDITTEQKAACSVWIPVNEGASTSGM
modifications: left off: small tags and cut ends
notes: vIRF4 aa 153-216 fragment, hexahistidine-tagged, expressed in E. coli
Broadly, the Kd is the equilibrium constant for the complex coming apart. As for B1, the dissociation constant Kd in assay [1] (ITC, 20° C., read-out: Kd) came out at 540 nM. Moreover, in assay [1] (20° C.), the n is listed as 0.82 ± 0.09. For the same molecule, in assay [2], the “complex formation with the HAUSP TRAF domain” value is “formed a stable complex”.

B2: vIRF4^153-256: vIRF4 aa 153-256 region, hexahistidine-tagged, expressed in E. coli (protein)
chain: SDTREQSYEEAGAAAPAPPKAPSGLRGRPRKSNRYYNVGDITTEQKAACSVWIPVNEGASTSGMGSSGTRQVTQASSFTWRVPGDPPAPSTLTGPSDPHSSGAG
modifications: left off: small tags and cut ends
notes: vIRF4 aa 153-256 region, hexahistidine-tagged, expressed in E. coli
In the case of B2, the dissociation constant Kd in assay [1] (HAUSP^62-205 and vIRF4^153-256, ITC, read-out: dissociation constant (Kd)) came out at 76 nM; in assay [1] (ITC, 20° C., read-out: Kd), 76 nM. This molecule also displayed a n in assay [1] (20° C.) of 1.13 ± 0.18.
